Among the data in article PMC6303335 (2018) are koff values, retold here.

This test deals with E194, the type I interferon binding protein (IFNα/βBP) from ectromelia virus (ECTV) Naval strain (Ectromelia virus, strain Naval). The test is described as follows: SPR. A general note: In SPR one partner is held on a chip, and binding of the other changes the refractive index at the surface.

B1: mouse IFNα subtype A (ligand)
chain: CDLPHTYNLRNKRALKVLAQMRRLPFLSCLKDRQDFGFPLEKVDNQQIQKAQAIPVLRDLTQQTLNLFTSKASSAAWNATLLDSFCNDLHQQLNDLQTCLMQQVGVQEPPLTQEDALLAVRKYFHRITVYLREKKHSPCAWEVVRAEVWRALSSSVNLLPRLSEEKE
The term koff denotes the first-order rate constant of dissociation. Read a low koff as a long-lived complex. In turn, B1 yielded a koff of 0.000331 s⁻¹.
